The target of this test is Cdk2/cyclin A complex (human, UniProt P24941 1-298; P20248 173-432). Put plainly: fluorescence polarisation; fluorescence anisotropy; Cdk2/cyclin A binding to p27-D2-FL (20 nM); 25 °C; 20 mM Na phosphate, pH 7, 200 mM NaCl, 3.5 mM TCEP; non-linear regression on the average of three experiments. The note with it: both partners purified.

Our source for the Kd values is publication PMC4623604, “Discovery of Small Molecules that Inhibit the Disordered Protein, p27^Kip1” (Scientific Reports, 2015).

Where no end group is shown, it is not given here.

B1: p27-D2-FL (p27-D2-C99S-R93C labeled with Alexa Fluor 488) (domain or fragment)
chain: RKWNFDFQNHKPLEGKYEWQEVEKGSLPEFYYRPPC(Alexa Fluor 488 C5‑maleimide)PPKGASKVPAQE
notes: p27Kip1 (p27; CDKN1B), human, D2 sub-domain construct, residues 58-105; Cloned in pET28a; also called single-cysteine mutant of p27-D2; source: conjugated with Alexa Fluor488-C5-Maleimide and purified again by HPLC; not shown: 6xHis, N-terminal, cleaved
In turn, B1 had a dissociation constant (Kd) of 73 ± 8 nM.

A word on the Kd: it is the constant that tells how readily two partners part at equilibrium.
